What all share (experiment): SEC
The target of test [1] is bimodular construct 25 (MAT-ACP didomain fused to full-length mFAS) (Mus musculus) (UniProt P19096).
In test [2] the target is mFAS alpha-module, construct 17 (KS-MAT-ACP, mFAS sequences only) (Mus musculus).
Test [3] deals with mFAS alpha-module, construct 22 (KS-MAT-ACP-TE, mFAS sequences only) (Mus musculus).
The target in test [4] is mFAS delta-module, construct 6 (2-2195) (Mus musculus) (UniProt P19096).
The target of test [5] is murine fatty acid synthase (mFAS) (Mus musculus) (UniProt P19096). The following applies: remark: other sources report otherwise.

As to “bimodular construct 25 (MAT-ACP didomain fused to full-length mFAS) (from UniProt P19096 1-2504)”, the stoichiometry N in test [1] is 2.

“mFAS alpha-module, construct 17 (KS-MAT-ACP, mFAS sequences only) (domain or fragment)” registered a stoichiometry N in test [2] of 2.

“mFAS alpha-module, construct 22 (KS-MAT-ACP-TE, mFAS sequences only) (domain or fragment)”: in test [3], the stoichiometry N was 2.

The substance “mFAS delta-module, construct 6 (2-2195), P19096 2-2195” came in with a stoichiometry N in test [4] of 2.

In turn, “murine fatty acid synthase (mFAS), P19096 1-2504” displayed a stoichiometry N in test [5] of 2.

The values are drawn from article doi:10.1101/379156.
